{"source": "patent US20230348572A1", "molecular_target": "RBD (amino acids 340-538 NITN.GPKK) expressed on the surface of MDCK-SIAT1 cells (SARS-CoV-2) (UniProt P0DTC2)"}
{"substance": "H11-D4-Fc (Fc fusion)", "values": [{"measurement": "IC50", "value": 28, "unit": "nM"}]}
